Measured values taken from article PMC4234293, “Galactosyltransferases from Arabidopsis thaliana in the biosynthesis of type II arabinogalactan: molecular interaction enhances enzyme activity” (BMC Plant Biology, 2014).

B1: AtGALT29A (Arabidopsis thaliana beta-galactosyltransferase 1 from family GT29, At1g08280), C-terminal mCer3-HA or YFP-HA fusion (enzyme, UniProt Q9SGD2 1-398, looked up)
chain: MKRSVRPLFSALLFAFFAATLICRVAIRRSSFSFASAIAELGSSGLMTEDIVFNETLLEFAAIDPGEPNFKQEVDLISDYDHTRRSHRRHFSSMSIRPSEQQRRVSRDIASSSKFPVTLRSSQAYRYWSEFKRNLRLWARRRAYEPNIMLDLIRLVKNPIDVHNGVVSISSERYLSCAVVGNSGTLLNSQYGDLIDKHEIVIRLNNAKTERFEKKVGSKTNISFINSNILHQCGRRESCYCHPYGETVPIVMYICQPIHVLDYTLCKPSHRAPLLITDPRFDVMCARIVKYYSVKKFLEEKKAKGFVDWSKDHEGSLFHYSSGMQAVMLAVGICEKVSVFGFGKLNSTKHHYHTNQKAELKLHDYEAEYRLYRDLENSPRAIPFLPKEFKIPLVQVYH
notes: AtGALT29A, Arabidopsis thaliana, locus At1g08280; full-length cDNA without stop codon; Two copies that differ only in the tag were used in the FRET experiments: mCer3-HA (donor) and YFP-HA (acceptor); They are kept as one molecule so that the homodimer row has the protein with itself; The label in each row tells which copy was meant; also called AtGALT29A-mCer3; AtGALT29A-YFP; source: N. …
B2: AtGALT31A (Arabidopsis thaliana beta-galactosyltransferase 1 from family GT31, At1g32930), C-terminal mCer3-HA or YFP-HA fusion (enzyme, UniProt Q9MAP8 1-399, looked up)
chain: MGMGRYQKSATSGVSARWVFVLCISSFLLGVLVVNRLLASFETVDGIERASPEQNDQSRSLNPLVDCESKEGDILSRVSHTHDVIKTLDKTISSLEVELATARAARSDGRDGSPAVAKTVADQSKIRPRMFFVMGIMTAFSSRKRRDSIRGTWLPKGDELKRLETEKGIIMRFVIGHSSSPGGVLDHTIEAEEEQHKDFFRLNHIEGYHELSSKTQIYFSSAVAKWDADFYIKVDDDVHVNLGMLGSTLARHRSKPRVYIGCMKSGPVLAQKGVKYHEPEYWKFGEEGNKYFRHATGQIYAISKDLATYISVNRQLLHKYANEDVSLGSWFIGLDVEHIDDRSLCCGTPLDCEWKGQAGNPCAASFDWSCSGICKSVDRMLEVHQRCGEGDGAIWHSSF
notes: AtGALT31A, Arabidopsis thaliana, locus At1g32930; full-length cDNA without stop codon; Two copies that differ only in the tag were used in the FRET experiments: mCer3-HA (donor) and YFP-HA (acceptor); They are kept as one molecule so that the homodimer row has the protein with itself; also called AtGALT31A-mCer3; AtGALT31A-YFP; source: N. benthamiana leaves, Agrobacterium-infiltrated, transient …

Assays:
Test in all cases: FRET or BRET; acceptor photobleaching FRET, mCer3 donor and YFP acceptor, co-expressed in N. benthamiana leaf epidermal cells; Golgi ROIs, pixel-by-pixel FRET efficiency
[1] = biological target: B2; conditions: partners not purified
[2] = biological target: the molecule itself
[3] = biological target: B1; conditions: partners not purified

FRET efficiency [1] [%]	FRET efficiency [3] [%]	Binder	FRET efficiency [2] [%]
18	–	B1	34
–	29	B2	19
